Measured values as given in the supplement of paper PMC9170038.

System: MS2 coat protein
Test: apparent KD of MS2 coat protein; higher = weaker reporter binding
Settings: Eterna round: R107
Procedure, shortened: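 Apparent KD per design is the median of normalised cluster binding-curve fits. Designed RNA switches transcribed on-chip from Illumina sequencing clusters were titrated with SNAP-549-labelled MS2 coat protein in twofold steps from 0.7 or 1.5 nM to 3 µM, with 0.8–1.5 h down to 10–20 min per step. Buffer: 100 mM Tris-HCl pH 7.5, 80 mM KCl, 4 mM MgCl2, without or with constant ligand.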

[1] = input ligand: theophylline 20 uM
[2] = input ligand: tryptophan 2.4 mM
[3] = input ligand: theophylline 2 mM

Row | Sequence | apparent KD of MS2 coat protein (input ligand: arginine 13.2 mM) [nM] | apparent KD of MS2 coat protein [1] [nM] | apparent KD of MS2 coat protein [2] [nM] | apparent KD of MS2 coat protein (input ligand: none) [nM] | apparent KD of MS2 coat protein [3] [nM]
1 | ACCUACACGGAGACGUGUAGGAGUAAUGAUACCAGCAUGGAGACAUGCCCUUGGCAGCGUUACAUGAGGAUCACCCAUGUGGUGC [ETHA #6] | 19.1 | 37.4 | 21.6 |  | 
2 | ACAUGAGGAUCACCCAUGUCAGGGCACGAUACCAGCUGAUCCGAUGGCCCUUGGCAGCGUUACGUGUGGUCAUGAGGAUCACCCG [pjbmullin] | 55.5 | 101 | 64.7 | 59.3 | 76.8
3 | UUUAUUAUUGACUCGUUUUGGUAUUAAGAACGAGGACCGGUACGGCCGCCACUCGUGAUAUACAUGAGGAUCACCCAUGUUAGCA [JR_Nu_SSTryptoA_Sub021] | 19.4 | 19.4 |  |  | 18.3
4 | GUCCUAGCGAGCGCUCGCUAGGACGCGGAUACCAGCGAGGUCCAUCGCCCUUGGCAGCCGAACAUGAGGAUCACCCAUGUCGGUA [#1 Same State - Theophylline A Attempt #16 (HarryS)] | 8.3 | 13.2 | 9.97 | 11.6 | 13.4
5 | GGUCUCUGGAGCGAUACCAGCUUAAAUGUACUGGCCAGGUACAUGAGGAUCACCCAUGUAAGCCCUUGGCAGCGCUCCAGAGACC [#1 Exclusion - Theophylline B Attempt #13 (HarryS)] | 12.3 | 13.8 | 13.5 | 13.9 | 39.2
6 | AACCACGAGUCGGCCGCCACUUGCAACUAGUUUCAGAAGCAGAAACAUGAGGAUCACCCAUGUCGAAGGACCGGGACUUUACAGG [theeternabot_sameState_MS2_Trp_B_18] | 21.6 | 23.2 |  |  | 17.4
7 | UGUAUGUGAUCUGAUACCAGUCCAACUGGUAAAACUUGAGGAUCACCCAAGUAAAAUUGGGACCCUUGGCAGCAGAUCGCAUACU | 126 | 360 | 371 | 371 | 81.7
8 | AGAUUCGACACGGCCGCCACUUGUGGUGGAUUAUCCUAUGUCGAACAUGAGGAUCACCCAUGUACAAGGACCGGGUGUUGAGUCU [XTryp B #21] | 156 | 365 |  |  | 447
9 | GAGACGUCGGGAAGGAGCGCAUCCAAACCACACAUGAGGAUCACCCAUGUAUAAAUAUGCAUGCAGGUAGGUCGCCCGGUGUCCC [Diaxeon] | 59.7 | 125 | 75.1 | 87.2 | 97.8
10 | AUGUCGUUGAAUACAGCGGCAUGGUGUGAUACCAGAAUGAUCAAAUUCCCUUGGCAGCAUCACAUGAGGAUCACCCAUGUUAAGG [SSTheo A #17] | 27.5 | 50 | 46.4 |  | 
11 | ACAUGAGGAUCACCCAUGUAAUGGCACGAUACCAGCUGAUCCCGUGGCCCUUGGCAGCGUCCGGUGUGGUCCGCCGGGUUGGACC [HHHMULLIN] | 59 | 49.1 | 36.2 | 26 | 31.1
12 | AAUAAGCAGCUGCCUUCCUCAUGAGCAGAUACCAGCUAGGAAACUAGCCCUUGGCAGCUGCAACAUGAGGAUCACCCAUGUAAUA [(T)'-(M)'-(T1)-(T2)-(M1)-(M2)_Design4] | 22.4 | 81.2 | 43.7 |  | 
13 | AGCAUGUUAUCAGAUACCAGACAUCUUUUAAAACAUAUUACAUGAGGAUCACCCAUGUUGGUCCCUUGGCAGCUGAAAUAUUUCA [JR_Nu_SSTheophyB_Sub024] | 118 | 223 | 321 |  | 
14 | GCACUACAUGAGGAUCACCCAUGUGCAGAUACCAGAGGUGUAUGCCUCCCUUGGCAGCUGCGUCGCUCUGGAAGCCUAUUGGUUU [Same State Theophylline A GF16] | 15.8 | 25.5 | 18.4 |  | 
15 | GAUGAACUAUUUGAUACCAGACUACAUGAGGAUCACCCAUGUGUGUUUAUACUUCAGUCAGUCCCUUGGCAGCAAAUAGUUUAUC [XTheo B #3] | 94.8 | 183 | 158 |  | 
16 | UGGUACAUGAGGAUCACCCAUGUUCCAGAUACCAGUGUCCCGCUGCACCCUUGGCAGCUGGUGGUACAUGAGGAUCACCCAUGUG [Exclusion Theophylline A GF11] | 24.3 | 42.7 | 39 | 34.1 | 56.4
17 | GCUAGUGGCAGAAGGAGCGACAUUAAAAGUGGUCGAUACAUGAGGAUCACCCAUGUACUAUGUCAGGUAGGUCGCUGCCACUAGC [EAB NP+V+V2 #4 +-Same Structure] | 27.8 | 39.1 | 30.7 | 30.7 | 36.6
18 | CGACACAUGAGGAUCACCCAUGUAAUGACGCGAGGACCGGUACGGCCGCCACUCGCAUGCCAAUGAGCGCAUGCGGCCUGGGUAU [Exclusion Tryp A GF6] | 17.5 | 23.6 |  |  | 19.5
19 | ACACAUGAGGAUCACCCAUGUGCGCUGGAAGGAGCGCAGAAUCAUGCAGGUAGGUCGCCAGUGCCCUUCGAUAAAGGGAAAAGAG [Erbienes] | 42.4 | 72 | 69.1 | 97.4 | 106
20 | AAAAGAGGUGGAAGGAGCGGGAGACAUGAGGAUCACCCAUGUGAAGUUACGAAAGGUUCAGCCCAGGUAGGUCGCCAUGUCGAAA [eefemullin] | 1.33 | 55.1 | 33.7 | 17.5 | 58.8
